Reference: article PMC9482650, “Quantitative fragmentomics allow affinity mapping of interactomes” (Nature Communications, 2022)

Experiments:
Test in all cases: holdup assay
Parameters in all cases: key: below the threshold = too weak to quantify, mostly under pKd 3.1 to 4
[1] = target: T1, APBA2_2, Q99767
T1 sequence (Q99767 654-744, limits assumed, looked up): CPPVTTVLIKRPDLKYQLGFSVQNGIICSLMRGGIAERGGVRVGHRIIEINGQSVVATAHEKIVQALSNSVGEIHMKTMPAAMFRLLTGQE

[2] = target: ARHGEF12, Q9NZN5-2
[3] = target: T2, CARD11, Q9BXL7
T2 sequence (Q9BXL7 662-765, limits assumed, looked up): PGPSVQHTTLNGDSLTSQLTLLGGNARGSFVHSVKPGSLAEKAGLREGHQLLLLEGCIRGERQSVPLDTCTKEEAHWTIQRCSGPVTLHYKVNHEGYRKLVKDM

[4] = target: DLG2_3, Q15700
[5] = target: GRID2IP_2, A4D2P6
Chain of GRID2IP_2, A4D2P6 (A4D2P6 272-370): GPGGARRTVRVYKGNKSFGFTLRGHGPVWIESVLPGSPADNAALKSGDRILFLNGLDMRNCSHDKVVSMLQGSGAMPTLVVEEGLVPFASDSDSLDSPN

[6] = target: T3, GRIP1_4, Q9Y3R0
T3 sequence (Q9Y3R0 467-571, limits assumed, looked up): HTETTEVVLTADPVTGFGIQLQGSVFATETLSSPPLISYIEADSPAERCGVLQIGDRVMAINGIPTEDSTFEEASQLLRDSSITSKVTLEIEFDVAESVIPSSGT

[7] = target: T4, GRIP1_7, Q9Y3R0
T4 sequence (Q9Y3R0 999-1096, limits assumed, looked up): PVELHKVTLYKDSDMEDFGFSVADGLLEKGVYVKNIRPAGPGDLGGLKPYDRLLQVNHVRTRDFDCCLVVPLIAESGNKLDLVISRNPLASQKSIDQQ

[8] = target: HTRA1, Q92743
Chain of HTRA1, Q92743 (Q92743 360-477): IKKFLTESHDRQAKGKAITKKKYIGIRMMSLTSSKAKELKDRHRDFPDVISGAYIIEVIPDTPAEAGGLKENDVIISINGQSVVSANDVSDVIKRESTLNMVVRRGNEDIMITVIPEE

[9] = target: T5, HTRA3, P83110
T5 sequence (P83110 354-453, limits assumed, looked up): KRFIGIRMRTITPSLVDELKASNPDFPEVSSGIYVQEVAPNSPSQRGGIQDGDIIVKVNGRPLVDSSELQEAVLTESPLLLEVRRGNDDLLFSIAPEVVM

[10] = target: IL16_3, Q14005
Chain of IL16_3, Q14005 (Q14005 1107-1207): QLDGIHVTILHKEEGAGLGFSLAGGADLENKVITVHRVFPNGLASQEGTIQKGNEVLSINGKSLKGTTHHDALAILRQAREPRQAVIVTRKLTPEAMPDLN

[11] = target: Inadl_6, Q8NI35
Chain of Inadl_6, Q8NI35 (Q8NI35 1058-1167): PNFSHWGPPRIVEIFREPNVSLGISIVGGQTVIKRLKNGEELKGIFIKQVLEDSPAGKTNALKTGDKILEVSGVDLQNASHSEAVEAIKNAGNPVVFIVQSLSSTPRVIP

[12] = target: LAP2, Q96RT1
Chain of LAP2, Q96RT1 (Q96RT1 other isoform, or with tags, fused parts or gaps): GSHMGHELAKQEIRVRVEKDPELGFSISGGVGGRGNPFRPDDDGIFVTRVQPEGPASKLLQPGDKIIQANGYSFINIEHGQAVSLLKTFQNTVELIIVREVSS

[13] = target: LIMK2, P53671
Chain of LIMK2, P53671 (P53671 143-248): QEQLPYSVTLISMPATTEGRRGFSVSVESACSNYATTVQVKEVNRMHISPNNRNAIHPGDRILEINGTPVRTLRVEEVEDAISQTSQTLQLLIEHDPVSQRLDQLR

[14] = target: T6, LIN7A, O14910
T6 sequence (O14910 103-200, limits assumed, looked up): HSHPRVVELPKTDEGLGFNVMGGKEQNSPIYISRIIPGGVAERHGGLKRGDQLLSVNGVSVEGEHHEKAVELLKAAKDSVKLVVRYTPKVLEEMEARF

[15] = target: T7, MPDZ_10, O75970
T7 sequence (O75970 1624-1722, limits assumed, looked up): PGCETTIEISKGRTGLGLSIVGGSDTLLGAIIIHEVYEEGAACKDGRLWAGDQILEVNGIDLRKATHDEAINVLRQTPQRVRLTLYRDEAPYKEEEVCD

[16] = target: NHERF4_1, Q86UT5-2
Chain of NHERF4_1, Q86UT5-2 (Q86UT5 other isoform, or with tags, fused parts or gaps): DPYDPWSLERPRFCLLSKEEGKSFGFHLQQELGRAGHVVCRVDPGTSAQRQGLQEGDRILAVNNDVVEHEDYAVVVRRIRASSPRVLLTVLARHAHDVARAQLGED

[17] = target: T8, PCLO, Q9Y6V0
T8 sequence (Q9Y6V0 4491-4600, limits assumed, looked up): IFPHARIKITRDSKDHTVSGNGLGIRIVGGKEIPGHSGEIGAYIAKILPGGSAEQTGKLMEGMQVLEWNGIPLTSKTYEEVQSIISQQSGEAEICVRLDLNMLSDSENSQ

[18] = target: T9, PDZD2_2, O15018
T9 sequence (O15018 329-429, limits assumed, looked up): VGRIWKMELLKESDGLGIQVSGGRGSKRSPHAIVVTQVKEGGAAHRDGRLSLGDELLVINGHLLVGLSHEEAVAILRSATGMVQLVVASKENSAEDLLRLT

[19] = target: T10, RADIL, Q96JH8
T10 sequence (Q96JH8 971-1071, limits assumed, looked up): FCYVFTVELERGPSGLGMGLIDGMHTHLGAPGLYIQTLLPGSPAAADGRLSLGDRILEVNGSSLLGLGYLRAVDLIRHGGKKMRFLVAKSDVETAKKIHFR

[20] = target: T11, SHANK1, Q9Y566
T11 sequence (Q9Y566 658-767, limits assumed, looked up): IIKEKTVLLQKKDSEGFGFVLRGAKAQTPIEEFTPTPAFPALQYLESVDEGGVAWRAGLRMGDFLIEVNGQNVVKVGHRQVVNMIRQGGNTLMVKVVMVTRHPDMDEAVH

[21] = target: T12, SIPA1L2, Q9P2F8
T12 sequence (Q9P2F8 945-1036, limits assumed, looked up): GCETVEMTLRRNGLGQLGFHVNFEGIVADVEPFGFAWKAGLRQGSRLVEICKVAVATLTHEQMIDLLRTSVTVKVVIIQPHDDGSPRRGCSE

[22] = target: T13, SNTG1, Q9NSN8
T13 sequence (Q9NSN8 52-150, limits assumed, looked up): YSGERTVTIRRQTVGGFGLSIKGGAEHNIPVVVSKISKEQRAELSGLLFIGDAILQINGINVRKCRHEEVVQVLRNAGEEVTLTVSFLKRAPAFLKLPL

[23] = target: TJP1_2, Q07157
Chain of TJP1_2, Q07157 (Q07157 181-274): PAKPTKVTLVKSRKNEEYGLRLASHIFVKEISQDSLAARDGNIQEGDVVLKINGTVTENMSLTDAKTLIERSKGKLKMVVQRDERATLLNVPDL

[24] = plain residues with an end cap or a label only (N-terminal biotin on a linker: ttds)
[25] = plain residues with an end cap or a label only (N-terminal biotin on a linker: ahx)
[26] = plain residues with an end cap or a label only (N-terminal biotin on a linker: ado-ado)

Chain of ARHGEF12, Q9NZN5-2 (Q9NZN5 other isoform, or with tags, fused parts or gaps): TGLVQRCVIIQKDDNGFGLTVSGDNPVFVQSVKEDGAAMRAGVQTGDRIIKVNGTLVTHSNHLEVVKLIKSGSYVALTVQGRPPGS

Binder: GARVSKETPL [MAPK12, P53778]
- pKd [1, 24]: below the threshold
- pKd [2, 24]: 4.34
- pKd [3, 24]: below the threshold
- pKd [4, 24]: 4.21
- pKd [5, 24]: 3.53
- pKd [6, 24]: below the threshold
- pKd [7, 24]: below the threshold
- pKd [8, 24]: below the threshold
- pKd [9, 24]: below the threshold
- pKd [10, 24]: below the threshold
- pKd [11, 24]: 3.55
- pKd [12, 24]: below the threshold
- pKd [13, 24]: below the threshold
- pKd [14, 24]: below the threshold
- pKd [15, 24]: below the threshold
- pKd [16, 24]: 3.85
- pKd [17, 24]: below the threshold
- pKd [18, 24]: below the threshold
- pKd [19, 24]: below the threshold
- pKd [20, 24]: 3.56
- pKd [21, 24]: below the threshold
- pKd [22, 24]: below the threshold
- pKd [23, 24]: below the threshold

Binder: KDECVIATEV [DLL1, O00548]
- pKd [1, 25]: below the threshold
- pKd [2, 25]: 4.44
- pKd [3, 25]: below the threshold
- pKd [4, 25]: 4.13
- pKd [5, 25]: 3.48
- pKd [6, 25]: below the threshold
- pKd [7, 25]: below the threshold
- pKd [8, 25]: 4.04
- pKd [9, 25]: below the threshold
- pKd [10, 25]: below the threshold
- pKd [11, 25]: below the threshold
- pKd [12, 25]: 3.59
- pKd [13, 25]: below the threshold
- pKd [14, 25]: below the threshold
- pKd [15, 25]: 3.48
- pKd [16, 25]: below the threshold
- pKd [17, 25]: below the threshold
- pKd [18, 25]: 4.51
- pKd [19, 25]: 3.61
- pKd [20, 25]: 3.76
- pKd [21, 25]: below the threshold
- pKd [22, 25]: 3.94
- pKd [23, 25]: below the threshold

Binder: KQVVPFSSSV [GDA, Q9Y2T3]
- pKd [1, 24]: below the threshold
- pKd [2, 24]: 3.98
- pKd [3, 24]: below the threshold
- pKd [4, 24]: 3.63
- pKd [5, 24]: 3.6
- pKd [6, 24]: below the threshold
- pKd [7, 24]: below the threshold
- pKd [8, 24]: below the threshold
- pKd [9, 24]: below the threshold
- pKd [10, 24]: below the threshold
- pKd [11, 24]: below the threshold
- pKd [12, 24]: 3.88
- pKd [13, 24]: below the threshold
- pKd [14, 24]: below the threshold
- pKd [15, 24]: 3.93
- pKd [16, 24]: below the threshold
- pKd [17, 24]: below the threshold
- pKd [18, 24]: 4.93
- pKd [19, 24]: 3.76
- pKd [20, 24]: 3.49
- pKd [21, 24]: below the threshold
- pKd [22, 24]: 3.71
- pKd [23, 24]: below the threshold

Binder: AKPQPVDSWV [ARVCF, O00192]
- pKd [1, 25]: below the threshold
- pKd [2, 25]: below the threshold
- pKd [3, 25]: below the threshold
- pKd [4, 25]: 4.06
- pKd [5, 25]: below the threshold
- pKd [6, 25]: below the threshold
- pKd [7, 25]: below the threshold
- pKd [8, 25]: 4.6
- pKd [9, 25]: 5.51
- pKd [10, 25]: below the threshold
- pKd [11, 25]: 4.33
- pKd [12, 25]: 5.73
- pKd [13, 25]: below the threshold
- pKd [14, 25]: below the threshold
- pKd [15, 25]: below the threshold
- pKd [16, 25]: below the threshold
- pKd [17, 25]: below the threshold
- pKd [18, 25]: 5.95
- pKd [19, 25]: 4.46
- pKd [20, 25]: below the threshold
- pKd [21, 25]: below the threshold
- pKd [22, 25]: 4.64
- pKd [23, 25]: below the threshold

Binder: NPDALPETLV [ARHGAP6, O43182]
- pKd [1, 24]: below the threshold
- pKd [2, 24]: 3.85
- pKd [3, 24]: below the threshold
- pKd [4, 24]: 4.01
- pKd [5, 24]: 3.8
- pKd [6, 24]: below the threshold
- pKd [7, 24]: 3.61
- pKd [8, 24]: 4.13
- pKd [9, 24]: below the threshold
- pKd [10, 24]: below the threshold
- pKd [11, 24]: 4.3
- pKd [12, 24]: 3.8
- pKd [13, 24]: below the threshold
- pKd [14, 24]: 3.61
- pKd [15, 24]: below the threshold
- pKd [16, 24]: 3.6
- pKd [17, 24]: below the threshold
- pKd [18, 24]: 4.12
- pKd [19, 24]: 4.08
- pKd [20, 24]: below the threshold
- pKd [21, 24]: below the threshold
- pKd [22, 24]: 5.33
- pKd [23, 24]: below the threshold

Binder: PDSYHRRDFW [U2AF2, P26368]
- pKd [1, 26]: below the threshold
- pKd [2, 26]: 3.52
- pKd [3, 26]: below the threshold
- pKd [4, 26]: below the threshold
- pKd [5, 26]: below the threshold
- pKd [6, 26]: below the threshold
- pKd [7, 26]: below the threshold
- pKd [8, 26]: 4.14
- pKd [9, 26]: 4.01
- pKd [10, 26]: below the threshold
- pKd [11, 26]: below the threshold
- pKd [12, 26]: below the threshold
- pKd [13, 26]: below the threshold
- pKd [14, 26]: below the threshold
- pKd [15, 26]: below the threshold
- pKd [16, 26]: below the threshold
- pKd [17, 26]: below the threshold
- pKd [18, 26]: below the threshold
- pKd [19, 26]: below the threshold
- pKd [20, 26]: below the threshold
- pKd [21, 26]: below the threshold
- pKd [22, 26]: below the threshold
- pKd [23, 26]: 3.72
